Data on 8 substances can be found in PMC7660905.

The target in one assay is AM14. The assay can be described thus: SPR. The conditions noted are these: read off a plot; for Kd: parent: est. 100 pM; for ratio to parent: parent: est. 1.0.
Assay [1] concerns the target D25 (human monoclonal antibody to site Ø of PreF). Briefly: SPR. The conditions noted are these: read off a plot; for Kd: parent: est. 54 pM; for ratio to parent: parent: est. 1.0.
Assay [2] has as its target D25 IgG (human monoclonal antibody to site Ø of PreF) (human). The assay can be described thus: SPR; Biacore T200, single cycle kinetics, IgG captured ([…]; 25 °C, HBS-EP; 1:1 binding model. (In general: In SPR one partner is held on a chip, and binding of the other changes the refractive index at the surface.)
Assay [3] has the same target. The assay can be described thus: SPR; Biacore T200, single cycle kinetics, IgG captured (100-200 RU) by human Fc binder on a CM5 chip; PreF injected at 0-20 nM, 120 s association, 600 s dissociation; 25 °C, HBS-EP; 1:1 binding model.

Take “DS-Cav1 (stabilized prefusion RSV glycoprotein F) (from UniProt P03420) D200N”: in the assay with AM14, the Kd stood at 0.12 nM and the ratio to parent worked out at 1.2. In assay [1], the Kd turned out to be 0.022 nM and the ratio to parent turned out to be 0.4.
With “DS-Cav1 (stabilized prefusion RSV glycoprotein F) (from UniProt P03420) N276S”, in the assay with AM14, the Kd worked out at 0.078 nM and the ratio to parent stood at 0.75. Moreover, in assay [1], the Kd was determined as 0.021 nM and the ratio to parent was 0.4.
For the substance “DS-Cav1 (stabilized prefusion RSV glycoprotein F) (from UniProt P03420) D200N; N276S”, in the assay with AM14, the Kd came out at 0.094 nM and the ratio to parent was determined as 0.95. For the same substance, in assay [1], the Kd stood at 0.057 nM and the ratio to parent was 1.
Consider “DS-Cav1 (prefusion-stabilized RSV fusion glycoprotein F), trimeric PreF (from UniProt P03420) (complex)”, for which the Kd in assay [2] is 0.0534 nM.
As for “DS-Cav1 (stabilized prefusion RSV glycoprotein F) (from UniProt P03420) N63A; K65A”, the Kd with AM14 came to 0.083 nM. Moreover, in assay [1], the Kd turned out to be 0.016 nM and the ratio to parent turned out to be 0.3.
monomeric form of PreF: in assay [3], the Kd was 0.0977 nM, the koff amounted to 3.75e-05 s⁻¹ and the kon came to 384000 M⁻¹ s⁻¹.
For “DS-Cav1 (stabilized prefusion RSV glycoprotein F) (from UniProt P03420) N63A”, in the assay with AM14, the Kd is 0.094 nM and the ratio to parent came to 0.95. Further, in assay [1], the Kd turned out to be 0.025 nM and the ratio to parent is 0.45.
On to “DS-Cav1 (stabilized prefusion RSV glycoprotein F) (from UniProt P03420) K65A”, for which the Kd with AM14 is 0.088 nM. In addition, in assay [1], the Kd amounted to 0.042 nM and the ratio to parent stood at 0.75.

What is called Kd is a measure of binding affinity in units of concentration. Broadly, the koff is a measure of how fast the partners let go of each other. What is called kon is the second-order rate constant of association. A low value points to slower complex formation.
